Where a chain is given by its changes, count along the chain named. Names and notes keep the numbering of the source.
B1: 56BLH (Fab, V domains shown)
VH: EVQLVQSGAEVKKPGASVKVSCKASGYTFTSYDMHWVRQAPGQGLEWMGRIDPQSGGTKYAQKFQGRATLTVDTSTSTAYMELSRLRSDDTAVYYCARWDYGGQFDVWGQGTLVTVSS
VL: DIQMTQSPSSLSASVGDRVTITCRASQDIYNYLNWYQQKPGKAVKLLIYYTSGLETGVPSRFSGSGSGTDYTLTISSLQPEDFATYFCQQGDTLPWTFGQGTKLEIK
notes: also called 08BLM Fab
B2: 57BLH (Fab, V domains shown)
VH: B1 VH with Q54I, T58I, Q104Y
VL: B1 VL with Y30F, G53H
notes: also called 09BLM Fab
B3: 58BLH (Fab, V domains shown)
VH: B1 VH with Q104Y
VL: B1 VL with G53V
notes: also called 10BLM Fab
B4: 65BLH (Fab, V domains shown)
VH: B1 VH with T58I, Q104Y
VL: B1 VL with G53R, T93E
notes: also called 17BLM Fab
B5: 16BLM (antibody, human IgG1, kappa, L234A L235A, V domains shown)
VH: B1 VH with T58I, Q104Y
VL: DIQMTQSPSSLSASVGDRVTITCRASQDIYNYLNWYQQKPGKAVKLLIYYTSVLETGVPSRFSGSGSGTDYTLTISSLQPEDFATYFCQQGDTLPWTFGQGTKLEIKR
notes: IgG1 L234A L235A D265S/kappa; also called 79BLH; 52BMD
B6: 07BLM (antibody, human IgG1, kappa, L234A L235A, V domains shown)
VH: B1 VH with T58I, K59R, Q104Y
VL: B5 VL with N31S, V53N
notes: IgG1 L234A L235A D265S/kappa; also called 70BLH; 43BMD

Each binder was assayed against T1, human LAP-TGFB1 Fc fusion (human) (assay: SPR).
T1 construct: also called human LAP-TGFβ1-Fc; human LAP-TGFβ-Fc isoform 1
T1 sequence (chain, as listed by the source limits assumed): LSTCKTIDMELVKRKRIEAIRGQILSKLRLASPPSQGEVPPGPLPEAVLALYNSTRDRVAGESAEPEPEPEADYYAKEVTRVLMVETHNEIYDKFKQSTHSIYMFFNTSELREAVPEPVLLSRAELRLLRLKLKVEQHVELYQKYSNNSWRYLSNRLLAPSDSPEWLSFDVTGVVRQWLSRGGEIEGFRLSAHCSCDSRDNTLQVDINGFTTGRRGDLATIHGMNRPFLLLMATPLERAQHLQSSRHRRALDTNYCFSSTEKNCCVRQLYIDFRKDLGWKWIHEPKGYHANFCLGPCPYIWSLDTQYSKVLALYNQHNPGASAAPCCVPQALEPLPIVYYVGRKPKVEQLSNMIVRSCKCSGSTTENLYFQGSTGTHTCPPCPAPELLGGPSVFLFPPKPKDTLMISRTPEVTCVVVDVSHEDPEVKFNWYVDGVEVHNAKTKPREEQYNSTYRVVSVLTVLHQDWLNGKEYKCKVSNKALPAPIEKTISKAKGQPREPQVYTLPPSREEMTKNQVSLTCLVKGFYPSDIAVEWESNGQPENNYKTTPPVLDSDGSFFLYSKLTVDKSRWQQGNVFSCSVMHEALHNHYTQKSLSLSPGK

| Binder | Fold change in KD from pH 7.4 to pH 6 [fold] |
| --- | --- |
| B1 | 1.7 |
| B2 | 1.3 |
| B3 | 1.6 |
| B4 | 0.4 |

The binders below were run against human LAP-TGFβ1 expressed on P3U1 cells (human, UniProt P01137 30-390) (assay: cell-based or functional assay).
Chain of human LAP-TGFβ1 expressed on P3U1 cells (P01137 30-390): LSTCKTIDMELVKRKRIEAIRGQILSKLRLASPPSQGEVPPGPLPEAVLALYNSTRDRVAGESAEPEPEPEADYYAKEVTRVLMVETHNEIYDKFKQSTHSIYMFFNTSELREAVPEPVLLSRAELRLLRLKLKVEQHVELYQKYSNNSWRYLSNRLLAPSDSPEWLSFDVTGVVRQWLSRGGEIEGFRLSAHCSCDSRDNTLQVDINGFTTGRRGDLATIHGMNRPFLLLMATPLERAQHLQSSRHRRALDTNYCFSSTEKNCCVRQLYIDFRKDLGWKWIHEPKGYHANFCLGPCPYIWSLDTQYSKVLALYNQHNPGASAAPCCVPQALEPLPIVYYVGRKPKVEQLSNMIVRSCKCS

| Binder | Average EC50 [µg/mL] | ELISA assay 2 EC50 [µg/mL] | ELISA assay #1 EC50 [µg/mL] |
| --- | --- | --- | --- |
| B5 | 0.104 | 0.126 | 0.0816 |
| B6 | 0.076 | 0.119 | 0.0332 |

These binders were tested against T1, human LAP-TGFB1 Fc fusion (assay: SPR pH 7.4, antigen captured on Fab 54BLH).
Text: (§1) A Series S C1 sensor chip (Cytiva, catalog BR100535) was immobilized with low densities of high affinity Fab 54BLH on a Biacore T200 instrument with 1×HBS-EP+(Teknova, catalog H8022). This surface served as a monovalent capture surface for a low-density layer of heterodimer human LAP-TGFβ1 complex leaving the second binding site exposed for monovalent kinetic binding analysis with both mAbs and Fabs. Immobilized flow cell 1 served as the reference and flow cells 2, 3 and 4 were used to evaluate the binding interaction between human LAP-TGFβ1 and yeast display mutant mAbs and Fabs.
(§2) Approximately 15-25 RU of human LAP-TGFβ1-Fc was captured to the Fab capture surface followed by injection of 1:3 serially diluted Fabs and mAbs from 6 nM to 0.07 nM (Fabs: 54BLH, 55BLH, 60BLH, 63BLH, 64BLH-mAbs: 69BLH, 70BLH) and 1:3 serially diluted Fab and mAbs from 60 nM to 0.74 nM (Fabs: 59BLH, 66BLH, 67BLH—mAbs: 74BLH, 75BLH, 78BLH, 79BLH, 81BLH, 82BLH) including 0 nM. The binding data was double referenced by subtraction of signal from a reference flow cell and the 0 nM injections for evaluation of Fabs and mAbs respectively. Binding rate constants were calculated/determined by fitting the data with a 1:1 binding model (Cytiva Biacore T200 Evaluation software 3.0).

| Binder | Fab/mAb KD Ratio | Kd [nM] | koff [s⁻¹] | kon [M⁻¹ s⁻¹] |
| --- | --- | --- | --- | --- |
| B5 | 1.6 | 0.038 | 0.000552 | 1.44e+07 |
| B6 | 0.3 | 0.047 | 0.000671 | 1.45e+07 |

These binders were tested against T1, human LAP-TGFB1 Fc fusion (assay: SPR pH 6.0, antigen captured on Fab 54BLH).
Text: as §1, §2

| Binder | Fab/mAb KD Ratio | Kd [nM] | koff [s⁻¹] | kon [M⁻¹ s⁻¹] |
| --- | --- | --- | --- | --- |
| B5 | 1.6 | 0.11 | 0.00122 | 1.12e+07 |
| B6 | 2.2 | 0.155 | 0.00131 | 8.47e+06 |

The binders below were run against T2, human LAP-TGFB3 Fc fusion (human) (assay: SPR pH 7.4).
T2 construct: also called human LAP-TGFβ3; LAP-TGFβ isoform 3
T2 sequence (chain, as listed by the source limits assumed): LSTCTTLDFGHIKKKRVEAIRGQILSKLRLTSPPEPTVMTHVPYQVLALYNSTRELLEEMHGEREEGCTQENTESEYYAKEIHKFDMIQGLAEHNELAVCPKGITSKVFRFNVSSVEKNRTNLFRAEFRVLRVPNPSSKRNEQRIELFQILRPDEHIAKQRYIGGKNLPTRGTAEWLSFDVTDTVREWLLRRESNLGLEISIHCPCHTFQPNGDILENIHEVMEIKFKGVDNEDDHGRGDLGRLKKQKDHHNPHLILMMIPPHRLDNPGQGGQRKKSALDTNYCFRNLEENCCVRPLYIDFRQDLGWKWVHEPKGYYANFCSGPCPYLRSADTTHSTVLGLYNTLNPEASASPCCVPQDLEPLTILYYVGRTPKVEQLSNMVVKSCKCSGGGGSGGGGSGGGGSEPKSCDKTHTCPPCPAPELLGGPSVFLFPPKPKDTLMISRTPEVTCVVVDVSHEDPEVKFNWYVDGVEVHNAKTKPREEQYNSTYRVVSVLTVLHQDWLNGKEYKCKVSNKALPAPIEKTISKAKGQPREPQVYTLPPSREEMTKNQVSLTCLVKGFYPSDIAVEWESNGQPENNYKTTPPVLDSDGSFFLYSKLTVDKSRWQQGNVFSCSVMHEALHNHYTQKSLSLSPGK

| Binder | binding result |
| --- | --- |
| B1 | no binding (tested: 1000 nM Fab) |
| B2 | no binding (tested: 1000 nM Fab) |
| B3 | no binding (tested: 1000 nM Fab) |
| B4 | no binding (tested: 1000 nM Fab) |

The binders below were run against T3, human LAP-TGFB2 Fc fusion (human) (assay: SPR pH 7.4).
T3 construct: also called human LAP-TGFβ2; LAP-TGFβ isoform 2
T3 sequence (chain, as listed by the source limits assumed): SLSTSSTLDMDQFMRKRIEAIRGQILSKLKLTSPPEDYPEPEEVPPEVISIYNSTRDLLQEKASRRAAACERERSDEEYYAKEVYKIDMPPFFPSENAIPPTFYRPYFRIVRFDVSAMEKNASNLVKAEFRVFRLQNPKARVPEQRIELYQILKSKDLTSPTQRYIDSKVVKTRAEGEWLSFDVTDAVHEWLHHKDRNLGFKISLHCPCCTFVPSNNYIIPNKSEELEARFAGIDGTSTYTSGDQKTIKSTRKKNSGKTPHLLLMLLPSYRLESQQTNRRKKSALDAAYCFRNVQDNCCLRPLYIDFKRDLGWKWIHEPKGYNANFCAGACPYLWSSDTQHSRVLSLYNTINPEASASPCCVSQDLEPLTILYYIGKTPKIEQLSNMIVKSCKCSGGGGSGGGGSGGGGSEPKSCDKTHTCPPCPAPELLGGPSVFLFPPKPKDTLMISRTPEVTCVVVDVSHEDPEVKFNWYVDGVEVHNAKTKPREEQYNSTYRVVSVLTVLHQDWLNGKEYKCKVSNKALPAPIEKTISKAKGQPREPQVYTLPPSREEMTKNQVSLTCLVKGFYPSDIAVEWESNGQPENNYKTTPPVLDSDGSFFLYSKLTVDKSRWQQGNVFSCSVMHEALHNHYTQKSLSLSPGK

| Binder | binding result |
| --- | --- |
| B1 | no binding (tested: 1000 nM Fab) |
| B2 | no binding (tested: 1000 nM Fab) |
| B3 | no binding (tested: 1000 nM Fab) |
| B4 | no binding (tested: 1000 nM Fab) |

Each binder was assayed against T1, human LAP-TGFB1 Fc fusion (assay: SPR pH 7.4, antigen-Fc captured, Fab analyte).

| Binder | Fold improvement in KD [fold] | Kd [nM] | koff [s⁻¹] | kon [M⁻¹ s⁻¹] |
| --- | --- | --- | --- | --- |
| B1 | 9760 | 0.006 | 2.57e-05 | 4.53e+06 |
| B2 | 723 | 0.081 | 0.00049 | 6.06e+06 |
| B3 | 1100 | 0.053 | 0.000313 | 5.93e+06 |
| B4 | 401 | 0.146 | 0.00107 | 7.33e+06 |

What follows are binders tested against T1, human LAP-TGFB1 Fc fusion (assay: SPR pH 6.0, antigen-Fc captured, Fab analyte).
Method: A Series S CM4 sensor chip (Cytiva, catalog BR100534) was immobilized with an anti-human Fc capture antibody following the kit protocol (Cytiva, catalog BR100839) on a Biacore T200 instrument with 1× HBS-EP+ (Teknova, catalog H8022). […] The binding data were double referenced by subtraction of signal from a reference (capture surface only) flow cell and the 0 nM Fab injection. Binding rate constants were determined by fitting the data with a 1:1 binding model (Cytiva Biacore T200 Evaluation software 3.0).

| Binder | Kd [nM] | koff [s⁻¹] | kon [M⁻¹ s⁻¹] |
| --- | --- | --- | --- |
| B1 | 0.01 | 5.56e-05 | 5.55e+06 |
| B2 | 0.106 | 0.00159 | 1.54e+07 |
| B3 | 0.086 | 0.000591 | 6.88e+06 |

These binders were tested against T4, human LAP-TGFβ1 (construct not stated) (human, UniProt P01137 30-390) (assay: KinExA, mAb as constant binding partner).
T4 construct: also called human LAP-TGFβ isoform 1; titrant
Method: An orthogonal kinetic exclusion assay (KinExA) method was used in this study to measure the affinities of affinity-matured anti-LAP-TGFβ1 antibodies (referred to as the constant binding partner, CBP) and human LAP-TGFβ1 (referred to as the titrant). To determine the free CBP concentration in solution, biotinylated human LAP-TGFβ1 coated PMMA (Sapidyne, catalog 440176) beads were prepared by first coating with biotin-BSA (ThermoScientific, catalog 29130) followed by streptavidin (Invitrogen, catalog S888), and a final coat with biotinylated human LAP-TGFβ1-Fc.
For association rate analysis, an experimentally optimized constant concentration of CBP and titrant, were mixed 1:1 and free CBP was measured at timed intervals ranging from 15 to 10000 seconds. […] The data were analyzed with KinExA Pro software (version 4.4.26) where the free CBP binding signals were converted into percent free response, plotted against time (seconds) and processed with the n-curve software “Kinetics, Direct” analysis method.
For equilibrium affinity analysis, two experimentally optimized CBP concentrations were combined with 1:2 serially diluted titrant, human LAP-TGFβ1, and incubated at room temperature to achieve equilibrium. […] The data was analyzed with KinExA Pro software (version 4.4.26) where the free CBP binding signals were converted into percent free response and plotted against the titrant concentration series. The equilibrium KD was determined by processing with n-curve software “Equilibrium” analysis method.

T4 sequence (P01137 30-390 limits assumed): as the sequence (P01137 30-390) above

| Binder | Kd [nM] | koff [s⁻¹] | kon [M⁻¹ s⁻¹] |
| --- | --- | --- | --- |
| B5 | 0.00275 | 1.38e-05 | 5.03e+06 |
| B6 | 0.00224 | 2.82e-05 | 1.28e+07 |

Target: T1, human LAP-TGFB1 Fc fusion
Assay: SPR pH 7.4, antigen-Fc captured, Fab analyte
Remark: another data set of the same source

| Binder | Kd [nM] | koff [s⁻¹] | kon [M⁻¹ s⁻¹] |
| --- | --- | --- | --- |
| B1 | 0.006 | 2.57e-05 | 4.53e+06 |
| B2 | 0.081 | 0.00049 | 6.06e+06 |
| B3 | 0.053 | 0.000313 | 5.93e+06 |
| B4 | 0.146 | 0.00107 | 7.33e+06 |

Source: patent US20230272056A1 (Merck Sharp & Dohme, published 2023)
